Source: patent publication US20100222251A1, “MIXTURE COMPRISING AN AMYLIN PEPTIDE AND A PROTRACTED INSULIN” (Novo Nordisk A/S, priority 2007, published 2010)

Test: Solubility versus pH curves (centrifugation, reverse HPLC)
Assay type: physicochemical
Procedure: Solubility versus pH curves were measured in the following way. A formulation was prepared and aliquotes were adjusted to pH values in the desired range by adding HClO4 or HCl and NaOH. These samples were left equilibrating at room temperature for 2-3 days. Then the samples were centrifuged. A small aliquot of each sample was withdrawn for reverse HPLC analysis for determination of the concentration of the proteins in solution. The pH of each sample was measured after the centrifugation, and the concentration of each protein was depicted versus the measured pH.

Compound	pH of full precipitation (below physiological pH) (Example 2 mix, 0.6 mM GlyA21 ArgB31 ArgB32 human insulin, 0.46 mM Zn(Ac)2, 30 mM phenol, 50 μM pramlintide) [pH]	pH of complete precipitation (below physiological pH) (Example 1, 0.6 mM GlyA21 ArgB31 ArgB32 human insulin, 0.46 mM Zn(Ac)2, 30 mM phenol) [pH]	precipitation versus pH compared to formulation of the insulin analogue alone (Example 2 mix, 0.6 mM insulin analogue, 0.46 mM Zn(Ac)2, 30 mM phenol, 50 μM pramlintide)	solubility state at pH 7 (Example 3 mix, pH 7, 0.6 mM GlyA21 ArgB31 ArgB32 human insulin, 0.3 mM Zn(Ac)2, 30 mM phenol, 100 μM pramlintide)	pH above which completely precipitated (FIG. 1, 0.6 mM GlyA21 ArgB31 ArgB32 human insulin, 0.46 mM Zn(Ac)2, 30 mM phenol) [pH]
CC[C@H](C)[C@H](NC(=O)[C@@H]1CCCN1C(=O)CNC(=O)[C@H](Cc1ccccc1)NC(=O)[C@H](CC(N)=O)NC(=O)[C@H](CC(N)=O)NC(=O)[C@H](CO)NC(=O)[C@H](CO)NC(=O)[C@H](Cc1c[nH]cn1)NC(=O)[C@@H](NC(=O)[C@H](CC(C)C)NC(=O)[C@H](Cc1ccccc1)NC(=O)[C@H](CC(N)=O)NC(=O)[C@H](C)NC(=O)[C@H](CC(C)C)NC(=O)[C@H](CCCNC(=N)N)NC(=O)[C@H](CCC(N)=O)NC(=O)[C@@H](NC(=O)[C@H](C)NC(=O)[C@@H]1CSSC[C@H](NC(=O)[C@@H](N)CCCCN)C(=O)N[C@@H](CC(N)=O)C(=O)N[C@@H]([C@@H](C)O)C(=O)N[C@@H](C)C(=O)N[C@@H]([C@@H](C)O)C(=O)N1)[C@@H](C)O)C(C)C)C(=O)N[C@@H](CC(C)C)C(=O)N1CCC[C@H]1C(=O)N1CCC[C@H]1C(=O)N[C@H](C(=O)N[C@@H](CC(N)=O)C(=O)N[C@H](C(=O)NCC(=O)N[C@@H](CO)C(=O)N[C@@H](CC(N)=O)C(=O)N[C@H](C(=O)N[C@@H](Cc1ccc(O)cc1)C(N)=O)[C@@H](C)O)C(C)C)[C@@H](C)O [pramlintide, Pro25 Pro28 Pro29-h-amylin]	< 7.4	–	–	–	–
GlyA21 ArgB31 ArgB32 human insulin	–	< 7.4	not changed	completely precipitated	> 6.5
